Experimental data as given in patent US20170157198A1 (BAXALTA, published 2017).
[ ]: non-standard residue; d: D form. Aib = CC(C)(N)C(=O)O

T1: murine TFPI (murine, UniProt O54819 29-289, limits assumed)
T1 construct: also called murine TFPI-1
T1 sequence (looked up): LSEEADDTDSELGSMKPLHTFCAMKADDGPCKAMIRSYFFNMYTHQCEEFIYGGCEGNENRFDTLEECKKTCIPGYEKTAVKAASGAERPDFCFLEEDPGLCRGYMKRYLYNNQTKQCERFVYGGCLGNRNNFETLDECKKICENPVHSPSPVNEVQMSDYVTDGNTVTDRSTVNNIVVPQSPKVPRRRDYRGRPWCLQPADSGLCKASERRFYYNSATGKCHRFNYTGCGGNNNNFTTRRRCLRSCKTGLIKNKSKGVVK


What was measured:
[1] = target: T2, TFPI (human TFPI-1α), as coated or added in the ELISA and model assays (human, UniProt P10646 29-304, limits assumed); experiment: cell-based or functional assay
murine TFPI = target: T1, murine TFPI; experiment: not specified
[2] = target: T2, TFPI (human TFPI-1α), as coated or …; experiment: ELISA affinity (column head says EC50)

Row | Binder | FXa Inhibition EC50 [1] | binding result (murine TFPI) | EC50 [2]
1 | FQSKPNVHVDGYFERLXAKLK (not fully specified; K(AOA) coupled to PSA (polysialic acid) aldehyde; D-proline at 5; Aib at 17) [JBT2430] | 9 nM | – | –
2 | FQSKPNVHVDGYFERLXAKLC (N-terminal acetyl (Ac); D-proline at 5; Aib at 17; C-terminal C(PEG), linear PEG 41.5 kD; C-terminal amide (NH2)) [JBT2329] | – | binds | –
3 | Ac-FQSK[dP]NVHVDGYFC(linear PEG 40 kDa)RL[Aib]AKL-NH2 [JBT2404] | 13.4 nM | – | 18.2 nM
